In PMC8449271 (The Journal of Biological Chemistry, 2021):

B1: Cryptococcus neoformans bifunctional GARs/AIRs (phosphoribosyl-glycinamide synthetase / phosphoribosyl-aminoimidazole synthetase), recombinant His-tagged (enzyme, UniProt J9VYP5 1-802, looked up)
chain: MPEITAFPQPKSDLSILLLGAGGREHALAFKLAQSSRVARIVVCPGNGGTALMGGKVSNLALPWGAPPAFRSIVEWAQKENIDLVVPGPEQPLVDGVEGAFKKVGIPVFGPSPAAAMLEGSKSLSKEFMARHNIPTAAFRSFTSTQYEDAVAYIKSKPFTSGRSVIKASGLAAGKGVLIPETDEEAFAALKSVMVDKEFGDAGDEVVVEEYLSGPEISVLAFSDGYTIVPMPAAQDHKRIGEGDTGLNTGGMGAYAPAPIATKEIMERCVKDVLEPTIKGMREDGYPFVGMLFTGFMITADGPRVLEYNVRFGDPETQALMLLLDEQTDLAEVLLACVERRLDSIKLGYKQGYAVSVVLASEGYPGSYPKGLPMTLNPTPEGVEVFHAGTKRSDNVTVTDGGRVLAVCASAPTLRAAVDLAYSGISQISFQGQTFRRDIAYRALSSEPPAEPKGLTYAAAGVSVDAGNDLVEAIKPVVKATRRPGADSDIGGFGGAFDLAKAGYKDPILVSGTDGVGTKLRVALDHGKHNTVGIDLVAMSVNDLIVQGAEPLYFLDYYACSKLDVPVAADVITGIAEGCLQAGCALIGGETAEMPGMYHGDDYDLAGFAVGVVERAQILPTPDIASGDVLLALSSSGPHSNGFSLIRKIVSLSNLSLHDTAPWDKNTSVGDALLTPTKVYIKPLLPGIKSGLYKGMSHITGGGFTENIPRIFSSASNLGVKLDLTSYSLPAIWKWLMRAGNVEAKEMVRTFNCGVGMIIIVAKDKADAALSSLKENGEEAWVIGEVQEKKGVEYVGLDKFGL
B2: Cryptococcus neoformans AIRs single enzymatic unit (phosphoribosyl-aminoimidazole synthetase), recombinant His-tagged (domain or fragment)
chain: GFGGAFDLAKAGYKDPILVSGTDGVGTKLRVALDHGKHNTVGIDLVAMSVNDLIVQGAEPLYFLDYYACSKLDVPVAADVITGIAEGCLQAGCALIGGETAEMPGMYHGDDYDLAGFAVGVVERAQILPTPDIASGDVLLALSSSGPHSNGFSLIRKIVSLSNLSLHDTAPWDKNTSVGDALLTPTKVYIKPLLPGIKSGLYKGMSHITGGGFTENIPRIFSSASNLGVKLDLTSYSLPAIWKWLMRAGNVEAKEMVRTFNCGVGMIIIVAKDKADAALSSLKENGEEAWVIGEVQEKKGVEYVGLDKFGL
B3: Cryptococcus neoformans GARs single enzymatic unit (phosphoribosyl-glycinamide synthetase), recombinant His-tagged (domain or fragment)
chain: MPEITAFPQPKSDLSILLLGAGGREHALAFKLAQSSRVARIVVCPGNGGTALMGGKVSNLALPWGAPPAFRSIVEWAQKENIDLVVPGPEQPLVDGVEGAFKKVGIPVFGPSPAAAMLEGSKSLSKEFMARHNIPTAAFRSFTSTQYEDAVAYIKSKPFTSGRSVIKASGLAAGKGVLIPETDEEAFAALKSVMVDKEFGDAGDEVVVEEYLSGPEISVLAFSDGYTIVPMPAAQDHKRIGEGDTGLNTGGMGAYAPAPIATKEIMERCVKDVLEPTIKGMREDGYPFVGMLFTGFMITADGPRVLEYNVRFGDPETQALMLLLDEQTDLAEVLLACVERRLDSIKLGYKQGYAVSVVLASEGYPGSYPKGLPMTLNPTPEGVEVFHAGTKRSDNVTVTDGGRVLAVCASAPTLRAAVDLAYSGISQISFQGQTFRRDIAYRALSSEPPAEP

Molecular target: the molecule itself
Assay: mass photometry

| Protein | stoichiometry N |
| --- | --- |
| B1 | 2 |
| B2 | 2 |
| B3 | 2 |
